In the supplement of paper PMC9112550, “Optimization of the antimicrobial peptide Bac7 by deep mutational scanning” (BMC Biology, 2022):

Tested on: Escherichia coli TOP10
Test: shrunken log2 fold change of peptide-encoding DNA abundance (4.5 h post-induction vs induction); higher = less antimicrobial activity (less host growth inhibition)
Conditions: time post-induction: 4.5 h; library: site-saturation at positions 5, 18, 19, 20
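Further: peptides expressed intracellularly from a pBAD plasmid library in pooled LB shake-flask culture, induced with 0.3% L-arabinose, DNA abundance read by NGS, three biological replicates, DESeq2 with apeglm shrinkage.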

In order of rising “shrunken log2 fold change” value:
1. RRIRERPPRLPRPRPRPNVIPRP  -1.38
2. RRIRIRPPRLPRPRPRPITFPRP  -1.1
3. RRIRIRPPRLPRPRPRPIPDPRP  -1.08
4. RRIRHRPPRLPRPRPRPSKCPRP  -1.04
5. RRIRERPPRLPRPRPRPYLHPRP  -0.96
6. RRIRCRPPRLPRPRPRPHHKPRP  -0.857
7. RRIRCRPPRLPRPRPRPSNHPRP  -0.718
8. RRIRCRPPRLPRPRPRPSDHPRP  -0.714
9. RRIRFRPPRLPRPRPRPIMKPRP  -0.679
10. RRIRMRPPRLPRPRPRPFLKPRP  -0.636
11. RRIRYRPPRLPRPRPRPKTSPRP  -0.595
12. RRIRCRPPRLPRPRPRPDMYPRP  -0.561
13. RRIRHRPPRLPRPRPRPYMKPRP  -0.541
14. RRIRLRPPRLPRPRPRPINVPRP  -0.54
15. RRIRIRPPRLPRPRPRPKIIPRP  -0.468
16. RRIRYRPPRLPRPRPRPADEPRP  -0.451
17. RRIRQRPPRLPRPRPRPVCIPRP  -0.39
18. RRIRIRPPRLPRPRPRPSNFPRP  -0.335
19. RRIRSRPPRLPRPRPRPILSPRP  -0.329
20. RRIRLRPPRLPRPRPRPCMAPRP  -0.311
21. RRIRLRPPRLPRPRPRPKHHPRP  -0.296
22. RRIRPRPPRLPRPRPRPASMPRP  -0.295
23. RRIRNRPPRLPRPRPRPFCEPRP  -0.28
24. RRIRYRPPRLPRPRPRPFIKPRP  -0.263
25. RRIRLRPPRLPRPRPRPSPCPRP  -0.252
26. RRIRFRPPRLPRPRPRPSVWPRP  -0.229
27. RRIRNRPPRLPRPRPRPFPFPRP  -0.22
28. RRIRDRPPRLPRPRPRPQYCPRP  -0.207
29. RRIRKRPPRLPRPRPRPCHVPRP  -0.203
30. RRIRERPPRLPRPRPRPPDYPRP  -0.202
31. RRIRHRPPRLPRPRPRPFSAPRP  -0.186
32. RRIRERPPRLPRPRPRPPNNPRP  -0.186
33. RRIRFRPPRLPRPRPRPCDRPRP  -0.179
34. RRIRARPPRLPRPRPRPNKMPRP  -0.177
35. RRIRIRPPRLPRPRPRPLRCPRP  -0.14
36. RRIRHRPPRLPRPRPRPHELPRP  -0.126
37. RRIRLRPPRLPRPRPRPCVEPRP  -0.124
38. RRIRARPPRLPRPRPRPVNIPRP  -0.123
39. RRIRSRPPRLPRPRPRPQKQPRP  -0.122
40. RRIRHRPPRLPRPRPRPEIPPRP  -0.111
41. RRIRKRPPRLPRPRPRPPIRPRP  -0.104
42. RRIRCRPPRLPRPRPRPSRFPRP  -0.0991
43. RRIRYRPPRLPRPRPRPRDQPRP  -0.0852
44. RRIRIRPPRLPRPRPRPNGYPRP  -0.0764
45. RRIRDRPPRLPRPRPRPHVPPRP  -0.076
46. RRIRVRPPRLPRPRPRPNCRPRP  -0.0746
47. RRIRRRPPRLPRPRPRPHHCPRP  -0.0737
48. RRIRHRPPRLPRPRPRPTHMPRP  -0.065
49. RRIRSRPPRLPRPRPRPCRDPRP  -0.0619
50. RRIRTRPPRLPRPRPRPMGGPRP  -0.0576
51. RRIRTRPPRLPRPRPRPSEYPRP  -0.0517
52. RRIRHRPPRLPRPRPRPTTVPRP  -0.0474
53. RRIRERPPRLPRPRPRPMMLPRP  -0.0415
54. RRIRLRPPRLPRPRPRPDLHPRP  -0.0386
55. RRIRPRPPRLPRPRPRPFDKPRP  -0.0386
56. RRIRSRPPRLPRPRPRPGMLPRP  -0.0372
57. RRIRMRPPRLPRPRPRPNAEPRP  -0.0356
58. RRIRVRPPRLPRPRPRPIQAPRP  -0.0344
59. RRIRSRPPRLPRPRPRPKIEPRP  -0.0199
60. RRIRHRPPRLPRPRPRPWCMPRP  -0.0194
61. RRIRNRPPRLPRPRPRPHEEPRP  -0.0188
62. RRIRERPPRLPRPRPRPEQKPRP  -0.017
63. RRIRYRPPRLPRPRPRPIGPPRP  -0.00962
64. RRIRNRPPRLPRPRPRPASFPRP  -0.00784
65. RRIRSRPPRLPRPRPRPVDHPRP  -0.00391
66. RRIRARPPRLPRPRPRPQVMPRP  -0.00224
67. RRIRHRPPRLPRPRPRPDAMPRP  -0.00187
68. RRIRYRPPRLPRPRPRPCVTPRP  -0.000683
69. RRIRDRPPRLPRPRPRPHMRPRP  0.00207
70. RRIRARPPRLPRPRPRPFHVPRP  0.00498
71. RRIRDRPPRLPRPRPRPQEKPRP  0.0105
72. RRIRRRPPRLPRPRPRPNMAPRP  0.0119
73. RRIRSRPPRLPRPRPRPNVIPRP  0.0185
74. RRIRSRPPRLPRPRPRPYQSPRP  0.0187
75. RRIRTRPPRLPRPRPRPMCFPRP  0.0222
76. RRIRIRPPRLPRPRPRPDAIPRP  0.0309
77. RRIRTRPPRLPRPRPRPPHYPRP  0.0354
78. RRIRIRPPRLPRPRPRPQDEPRP  0.0381
79. RRIRERPPRLPRPRPRPLKKPRP  0.0403
80. RRIRFRPPRLPRPRPRPEKMPRP  0.0434
81. RRIRDRPPRLPRPRPRPSAIPRP  0.0484
82. RRIRTRPPRLPRPRPRPTTHPRP  0.05
83. RRIRWRPPRLPRPRPRPSEGPRP  0.0528
84. RRIRARPPRLPRPRPRPPYGPRP  0.0793
85. RRIRMRPPRLPRPRPRPQNAPRP  0.0821
86. RRIRMRPPRLPRPRPRPHFIPRP  0.0859
87. RRIRFRPPRLPRPRPRPHQQPRP  0.0921
88. RRIRCRPPRLPRPRPRPCGDPRP  0.0996
89. RRIRTRPPRLPRPRPRPHAIPRP  0.103
90. RRIRLRPPRLPRPRPRPHCWPRP  0.109
91. RRIRPRPPRLPRPRPRPHFFPRP  0.118
92. RRIRGRPPRLPRPRPRPFKMPRP  0.143
93. RRIRDRPPRLPRPRPRPNQKPRP  0.18
94. RRIRERPPRLPRPRPRPNAIPRP  0.185
95. RRIRRRPPRLPRPRPRPTFSPRP  0.185
96. RRIRWRPPRLPRPRPRPCGEPRP  0.216
97. RRIRLRPPRLPRPRPRPRPKPRP  0.294
98. RRIRERPPRLPRPRPRPRDEPRP  0.307
99. RRIRARPPRLPRPRPRPPLKPRP  0.33
100. RRIRARPPRLPRPRPRPIGQPRP  0.34
101. RRIRRRPPRLPRPRPRPVAMPRP  0.342
102. RRIRGRPPRLPRPRPRPRWFPRP  0.355
103. RRIRPRPPRLPRPRPRPVHAPRP  0.441
104. RRIRRRPPRLPRPRPRPPTTPRP  0.445
105. RRIRRRPPRLPRPRPRPACMPRP  0.479
106. RRIRRRPPRLPRPRPRPESPPRP  0.5
107. RRIRARPPRLPRPRPRPEPVPRP  0.512
108. RRIRGRPPRLPRPRPRPDMHPRP  0.512
109. RRIRSRPPRLPRPRPRPACWPRP  0.523
110. RRIRTRPPRLPRPRPRPRRAPRP  0.523
111. RRIRGRPPRLPRPRPRPMLHPRP  0.526
112. RRIRRRPPRLPRPRPRPPSVPRP  0.545
113. RRIRPRPPRLPRPRPRPPDAPRP  0.553
114. RRIRKRPPRLPRPRPRPPMHPRP  0.636
115. RRIRKRPPRLPRPRPRPGCRPRP  0.654
116. RRIRRRPPRLPRPRPRPEAPPRP  0.708
117. RRIRMRPPRLPRPRPRPNPRPRP  0.718
118. RRIRMRPPRLPRPRPRPIAQPRP  0.726
119. RRIRGRPPRLPRPRPRPDPMPRP  0.743
120. RRIRRRPPRLPRPRPRPELGPRP  0.809
121. RRIRARPPRLPRPRPRPRRRPRP  0.888
122. RRIRGRPPRLPRPRPRPGGCPRP  1.19
123. RRIRGRPPRLPRPRPRPPRRPRP  1.28
124. RRIRKRPPRLPRPRPRPNWDPRP  1.4
125. RRIRERPPRLPRPRPRPDIQPRP  3.69
